Results taken from patent US20240117043A1 (SHANGHAI JUNSHI BIOSCIENCES, published 2024).
Blank lines part the entries; values can stand above or below the binder they belong to.

Columns and labels:
[1] = biological target: T1, recombinant human TIGIT (His Tag) (human, UniProt Q495A1 22-141); experiment: ELISA, plate coated with recombinant human TIGIT (His Tag), detection with HRP anti-human IgG4 Fc; unit taken from the concentration axis [2a]
T1 construct: Coated antigen of the ELISA; not shown: His tag
T1 sequence (looked up): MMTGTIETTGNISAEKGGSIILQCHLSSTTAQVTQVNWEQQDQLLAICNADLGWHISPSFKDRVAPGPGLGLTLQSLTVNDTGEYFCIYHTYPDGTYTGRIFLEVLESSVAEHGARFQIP
Method: 2. Procedures [0241] a. A 96-well plate was coated with 1.5 μg/mL recombinant human TIGIT (His Tag) (Suzhou Junmeng) as the antigen at 100 μL/well and incubated at 37° C. for 1.5 h. [0242] b. The plate was washed 4 times with 300 μL/well 1×PBST, and 2% BSA was added at 200 μL/well. The plate was blocked at 37° C. for 1.5 h. [0243] c. The plate was washed 4 times with 300 μL/well 1×PBST, and serial dilutions of the bispecific antibodies JS-1,3,5,9 and a negative control: antibody (anti-KLH hIgG4) (initial concentration 1.0 μg/mL, 3-fold serially diluted to 12 concentration points, 100 μL/well) were added. The plate was incubated at 37° C. for 1 h. [0244] d. The plate was washed 4 times with 300 μL/well 1×PBST. [0245] e. 5000-fold diluted horseradish peroxidase (HRP)-conjugated mouse anti-human IgG4 Fc antibody (Southern Biotech, 9200-05) was added at 100 μL/well, and the plate was incubated at 37° C. for 1 h. […] The plate was washed 4 times with 300 μL/well 1×PBST. [0247] g. 0.1 mg/mL TMB was added at 100 μL/well, and after the plate was incubated at 37° C. for 15 min, a 2 M solution of hydrochloric acid was added at 100 μL/well to stop the reactions. [0248] h. The absorbance was measured at 450 nm/620 nm on a microplate reader, and data were analyzed using Graphpad Prism7.

[2] = biological target: T2, recombinant human HX1 hCD112R Fc (human, UniProt Q6DKI7 41-171, limits assumed); experiment: ELISA, relative binding activity, sample kept at 40 C for 0 weeks
T2 construct: Coated antigen of the ELISA (Suzhou Junmeng); also called human CD112R; not shown: Fc part
T2 sequence (looked up): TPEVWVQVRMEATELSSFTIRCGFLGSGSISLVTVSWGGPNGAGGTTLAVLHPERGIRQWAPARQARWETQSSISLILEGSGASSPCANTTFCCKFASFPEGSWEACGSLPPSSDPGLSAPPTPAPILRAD
Method: (§1) The antibody samples were exchanged into a pH 5.5 buffer system (20 mM histidine-histidine hydrochloride buffer, 230 mM trehalose) with the concentration of the samples controlled at about 5 mg/mL, and the buffer was aliquoted into vials at 500 μL/vial. The vials were placed in a 40° C. incubator to test stability at 0 W, 2 W and 4 W. Samples were sent for analysis according to Table 2. Stability was assessed by the following parameters: (a) the content of antibody monomers, aggregates or fragments determined by SEC-HPLC (size exclusion chromatography); (b) the molecular weight of the antibody determined by CE-SDS (sodium dodecyl sulfate capillary electrophoresis); and (c) the bioactivity of the antibody determined by an ELISA or reporter gene assay.

[3] = biological target: T1, recombinant human TIGIT (His Tag); experiment: as above
Method: as §1

human CD112R-mFc protein = biological target: T3, human CD112R-mFc protein (human, UniProt Q6DKI7 41-171, limits assumed); experiment: flow cytometry, blocking of 1 ug/mL CD112R-mFc binding to CHO hCD112 cells
T3 construct: also called human CD112R protein; not shown: mouse Fc (mFc)
T3 sequence (looked up): T2 sequence (looked up)
Method: CHO hCD112 cells (Chinese hamster ovary cells, human CD112 positive) were incubated with different concentrations of the bispecific antibodies JS-1, JS-3, JS-5 and JS-9 and 1 μg/mL human CD112R-mFc protein at 4° C. for 30 min, then washed twice and incubated with a fluorescence-labeled anti-mouse IgG secondary antibody (1:200) in a dark place at 4° C. for 30 min. Finally, the cells were collected using a flow cytometer (BD Canto II), and the fluorescent antibodies bound to the cell surface were detected. Raw data were analyzed using FlowJo to obtain MFI values, antibody dose-dependent binding curves (FIG. 4) were fitted using GraphPad, and IC50 was calculated. The positive controls were hu52 (a recombinant humanized anti-CD112R monoclonal antibody) and JS-Ref (Hengrui) (an anti-TIGIT/CD112R bispecific antibody of Hengrui, expressed and purified according to the sequence of the patent WO2021180205), and the negative control was an anti-KLH-hIgG1 antibody.

[4] = biological target: T2, recombinant human HX1 hCD112R Fc; experiment: ELISA, plate coated with recombinant human HX1 hCD112R Fc, detection with HRP anti-human IgG4 Fc; unit taken from the concentration axis [3a]
Method: 2. Procedures [0255] a. A 96-well plate was coated with 1.0 μg/mL recombinant human HX1 hCD112R Fc (Suzhou Junmeng) as the antigen at 100 μL/well and incubated at 37° C. for 1.5 h. [0256] b. The plate was washed 4 times with 300 μL/well 1×PBST, and 2% BSA was added at 200 μL/well. The plate was blocked at 37° C. for 1.5 h. [0257] c. The plate was washed 4 times with 300 μL/well 1×PBST, and serial dilutions of the bispecific antibodies JS-1,3,5,9 and a negative control: antibody (anti-KLH hIgG4) (initial concentration 3.0 μg/mL, 3-fold serially diluted to 12 concentration points, 100 μL/well) were added. The plate was incubated at 37° C. for 1 h. [0258] d. The plate was washed 4 times with 300 μL/well 1×PBST. [0259] e. 5000-fold diluted horseradish peroxidase (HRP)-conjugated mouse anti-human IgG4 Fc antibody (Southern Biotech, 9200-05) was added at 100 μL/well, and the plate was incubated at 37° C. for 1 h. [0260] f. The plate was washed 4 times with 300 μL/well 1×PBST. [0261] g. 0.1 mg/mL TMB was added at 100 μL/well, and after the plate was incubated at 37° C. for 15 min, a 2 M solution of hydrochloric acid was added at 100 μL/well to stop the reactions. […] The absorbance was measured at 450 nm/620 nm on a microplate reader, and data were analyzed using Graphpad Prism7.

[5] = biological target: T2, recombinant human HX1 hCD112R Fc; experiment: ELISA, relative binding activity, sample kept at 40 C for 2 weeks
Method: as §1

[6] = biological target: T1, recombinant human TIGIT (His Tag); experiment: as above
Method: as §1

- EC50 [1]: 0.0858 µg/mL
- CD112R binding activity Elisa (%) [2]: 101%
- TIGIT binding activity Elisa (%) [3]: 100%
- IC50 (human CD112R-mFc protein): 0.915 nM
- EC50 [4]: 0.00403 µg/mL
- CD112R binding activity Elisa (%) [5]: 87%
- TIGIT binding activity Elisa (%) [6]: 75%
B1: bispecific antibody JS-1 (IgG4) (bispecific antibody)
heavy: QVQLVQSGAEVKKPGASVKVSCKTSGYAFTEYTMHWVRQAPGKGLEWMGGINPNTGGTTYNQKFQGRVTLTVDKSSSTAYMELSSLRSEDTVVYYCAKLLRLMYYFDYWGQGTLVTVSSASTKGPSVFPLAPCSRSTSESTAALGCLVKDYFPEPVTVSWNSGALTSGVHTFPAVLQSSGLYSLSSVVTVPSSSLGTKTYTCNVDHKPSNTKVDKRVESKYGPPCPPCPAPEFLGGPSVFLFPPKPKDTLMISRTPEVTCVVVDVSQEDPEVQFNWYVDGVEVHNAKTKPREEQFNSTYRVVSVLTVLHQDWLNGKEYKCKVSNKGLPSSIEKTISKAKGQPREPQVYTLPPCQEEMTKNQVSLWCLVKGFYPSDIAVEWESNGQPENNYKTTPPVLDSDGSFFLYSRLTVDKSRWQEGNVFSCSVMHEALHNHYTQKSLSLSLGK
light: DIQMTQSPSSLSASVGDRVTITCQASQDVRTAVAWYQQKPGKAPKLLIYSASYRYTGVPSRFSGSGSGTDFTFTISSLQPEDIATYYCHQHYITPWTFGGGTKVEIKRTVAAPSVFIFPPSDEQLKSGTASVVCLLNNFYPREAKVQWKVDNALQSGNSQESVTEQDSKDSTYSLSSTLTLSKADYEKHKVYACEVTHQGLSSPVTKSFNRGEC
chain: DIVMTQSPDSLAVSLGERATINCKASQSVSNDVAWYQQKPGQPPKLLIYYVSHRFTGVPDRFSGSGSGTDFTLTISSLQAEDVAVYFCHQAYRSPWTFGCGTKLEIKGGGGSGGGGSGGGGSGGGGSEVQLVESGGGLVKPGGSLRLSCAASGFTFSSYHMSWVRQAPGKCLELVSAINSNGINTYYLDTVKGRFTISRDNAKNSLYLQMNSLRAEDTAVYYCARHEDYYGFAMDYWGQGTLVTVSSGGGGSGGGGSESKYGPPCPPCPAPEFLGGPSVFLFPPKPKDTLMISRTPEVTCVVVDVSQEDPEVQFNWYVDGVEVHNAKTKPREEQFNSTYRVVSVLTVLHQDWLNGKEYKCKVSNKGLPSSIEKTISKAKGQPREPQVCTLPPSQEEMTKNQVSLSCAVKGFYPSDIAVEWESNGQPENNYKTTPPVLDSDGSFFLVSRLTVDKSRWQEGNVFSCSVMHEALHNRFTQKSLSLSLGK
notes: Three-chain knob-into-hole format: anti-TIGIT Fab arm and anti-CD112R scFv arm, IgG4 Fc

- EC50 [1]: 0.106 µg/mL
- CD112R binding activity Elisa (%) [2]: 102%
- TIGIT binding activity Elisa (%) [3]: 111%
- IC50 (human CD112R-mFc protein): 0.696 nM
- EC50 [4]: 0.00402 µg/mL
- CD112R binding activity Elisa (%) [5]: 98%
- TIGIT binding activity Elisa (%) [6]: 88%
B2: bispecific antibody JS-3 (IgG4) (bispecific antibody)
chain 1: not shown
chain 2: DIVMTQSPDSLAVSLGERATINCKASQSVSNDVAWYQQKPGQPPKLLIYYVSHRFTGVPDRFSGSGSGTDFTLTISSLQAEDVAVYFCHQAYRSPWTFGQGTKLEIKRTVAAPSVFIFPPSDEQLKSGTASVVCLLNNFYPREAKVQWKVDNALQSGNSQESVTEQDSKDSTYSLSSTLTLSKADYEKHKVYACEVTHQGLSSPVTKSFNRGECSGGGSGGGSEGGGSEGGGSEGGGSEGGGSGGGSGEVQLVESGGGLVKPGGSLRLSCAASGFTFSSYHMSWVRQAPGKGLELVSAINSNGINTYYLDTVKGRFTISRDNAKNSLYLQMNSLRAEDTAVYYCARHEDYYGFAMDYWGQGTLVTVSSASTKGPSVFPLAPCSRSTSESTAALGCLVKDYFPEPVTVSWNSGALTSGVHTFPAVLQSSGLYSLSSVVTVPSSSLGTKTYTCNVDHKPSNTKVDKRVESKYGPPCPPCPAPEFLGGPSVFLFPPKPKDTLMISRTPEVTCVVVDVSQEDPEVQFNWYVDGVEVHNAKTKPREEQFNSTYRVVSVLTVLHQDWLNGKEYKCKVSNKGLPSSIEKTISKAKGQPREPQVCTLPPSQEEMTKNQVSLSCAVKGFYPSDIAVEWESNGQPENNYKTTPPVLDSDGSFFLVSRLTVDKSRWQEGNVFSCSVMHEALHNRFTQKSLSLSLGK
notes: Two-chain scFab/scFab knob-into-hole format, IgG4 Fc
